Measurements from patent publication US20250000945A1, “Suppression of Neurodegeneration with Zinc Transporter Protein 7” (The Regents of the University of California, priority 2021, published 2025).

Legend:
[1] = system: border cells; assay: Border cell migration in stage 10 egg chambers expressing Catsup RNAi (rescue by co-expressed transgenes); type: in vivo, Drosophila; conditions: co-expressed with Catsup RNAi in border cells
From the text: Border cell clusters are composed of 4-6 migratory cells that surround and carry two non-migratory polar cells. Expression of a Catsup RNAi line in outer, migratory border cells using fruitlessGal4^51 inhibited migration (FIG. 2A). The defect was rescued by co-expression of UAS-CatsupV5 (FIG. 2B). Reduction of Catsup::GFP confirmed the effectiveness of the RNAi (FIGS. 2C, C′ and 2D, D′). Border cell migration was also impaired when Catsup RNAi was driven by c306Gal4 (FIG. 2E), which is expressed in both polar and migratory cells.
ZIP7 resides in the ER membrane and transports Zn^2+ from the ER to the cytosol^64. To test whether the Zn^2+ transporter activity of Catsup was important for border cell migration, we introduced point mutations, H315A and H344A, which replace histidine residues that are required for Zn^2+ transport and are conserved between Catsup, ZIP7 and a more distant family member from Arabidopsis IRT1. […] We generated transgenic flies expressing the mutants under Gal4/UAS control and included a V5 tag so that we could monitor protein abundance and localization. We then co-expressed each of these RNAi-resistant transgenes with CatsupRNAi and evaluated protein expression and border cell migration (FIGS. 5B-5E). […] All the proteins were stably expressed and correctly localized to the ER (FIGS. 5B-5E), therefore the lack of rescue was likely a consequence of impaired transporter activity rather than impaired expression, localization, or another function. […] From these experiments, we conclude that Zn^2+ transport is an essential function of Catsup in promoting ERAD.
Catsup mutant fly was generated by ethyl methanesulfonate (EMS) mutagen^37. The mutation results in glycine(G) to aspartic acid(D) replacement at amino acid 178. The FLP/FRT system was used to generate the Catsup^G178D homozygous mutant clones by combining FRT40A-Catsup^G178D with hsFLP12,yw;ubi:GFPnls, FRT40A or hsFLP12,yw;ubi:RFPnls, FRT40A/(CyO). Catsup::GFP expression pattern visualized by the line from VDRC 318542 in the fTRG stocks library. The UAS-CatsupRNAi transgenic line is from VDRC 100095 P{KK103630}VIE-260B. Wild type rescue w[*]; sna[Sco]/CyO; P{w[+mCJ=UAS-Catsup. V5}6 Bloomington 63229. Additional transgenic Drosophila stocks used: UAS-wRNAi/Cyo is a lab stock, UAS-PleRNAi Bloomington 25796 y[1] v[1]; P{y[+t7.7] v[+t1.8]=TRiP.JF01813}attP2, UAS-Ple is Bloomington 37539 w[*]; P{w[+mC]=UAS-ple.T}331f2, O-fucosyltransferasel Bloomington 9376 P{UAS-O-fut.}]1.1, UAS-Notch.Intracellular.Domain on third chromosome was a gift from Artavanis-Tsakonas lab^71. The ER stress marker UAS-Xbp1-EGFP.HG Bloomington 60731 w[*]; P{w[+mC]=UAS-Xbp1.EGFP.HG}3, UAS-HSC70-3 Bloomington 5843 w[126]; P{w[+mC]=UAS-Hsc70-3. WT}B. Catsup point mutations were cloned into vector pUASt-attb with forward primer ctctgaatagggaattggg[…] (SEQ ID NO:1) and reverse primer ccgcagatctgttaacgtca[…] (SEQ ID NO:2). The vector was injected to attp2 flies y1 w67c23; P{CaryP}attP2 by BestGene Inc.
When generating UAS-Catsup-point-mutations, we designed the construct so it cannot be targeted by the CatsupRNAi sequences by substituting redundant codons for the same amino acids within the region targeted by the RNAi. The RNAi resistant sequence is below with nucleic acid substitutions in lower case:
Point mutations were designed by changing codons at the following site CatsupH183A (CAC to GCC), CatsupH187A (CAT to GCT), CatsupH315A (CAT to GCT), CatsupH344A ([…]). […]

[2] = system: Notch and EGFR; assay: Intracellular accumulation of Notch and EGFR in mosaic clones expressing CatsupRNAi; type: in vivo, Drosophila; conditions: mosaic expression with CatsupRNAi
From the text: In wing imaginal disc epithelia, multiple transmembrane receptor proteins, including Notch and EGFR, accumulate abnormally in Catsup mutant cells^40. We similarly found abnormal intracellular accumulation of Notch in follicle cells generally (FIG. 3D, D′) and border cells specifically (FIG. 3E, E′) upon Catsup knockdown. […] As in imaginal discs, EGFR also accumulated abnormally in Catsup RNAi-expressing border cells (FIG. 3G, G′) and epithelial follicle cells (FIG. 3H, H′), whereas E-Cadherin was unaffected (FIG. 31, I′). From these observations, we conclude that Catsup prevents intracellular accumulation of particular transmembrane proteins and promotes Notch signaling, migration and survival in multiple cell types and organisms.
ZIP7 resides in the ER membrane and transports Zn^2+ from the ER to the cytosol^64. To test whether the Zn^2+ transporter activity of Catsup was important for border cell migration, we introduced point mutations, H315A and H344A, which replace histidine residues that are required for Zn^2+ transport and are conserved between Catsup, ZIP7 and a more distant family member from Arabidopsis IRT1. […] We then co-expressed each of these RNAi-resistant transgenes with CatsupRNAi and evaluated protein expression and border cell migration (FIGS. 5B-5E). […]

Molecule	rescue of border cell migration defect [1]	rescue of accumulation of Notch and EGFR [2]
Catsup^H187A: V5-tagged RNAi-resistant Catsup point mutant that does not disrupt Zn2+ transport (control) (protein, UniProt Q9V3A4 1-449, looked up, variant H187A, V5 tag) Protein catecholamines up: MAKQVADYQCSKLQLYQKLALVVILGAVLFSLPALCAGQGNPSFKYSREANENFDPQKAPRAEHHHHHDHDHDHGHHHHGHDHDHDHDHGHDHGHHHHGHDHDHDHDHGHHHHGHDERHTKAKPDLDMSTIWLHSIGSTLLISAAPFVLLYIIPLDNSEAMKPRLKVLLAFASGGLLGDAFLHLIPAATHPHSHGEHGHDHGHDHHHHHDGEEHEHGHSHDMSIGLWVLGGIIAFLSVEKLVRILKGGHGGHGHSHGAPKPKPVPAKKKSSDKEDSGDGDKPAKPAKIKSKKPEAEPEGEVEISGYLNLAADFAHNFTDGLAIGASYLAGNSIGIVTTITILLHEVPHEIGDFAILIKSGCSRRKAMLLQLVTALGALAGTALALLGAGGGDGSAPWVLPFTAGGFIYIATVSVLPELLEESTKLKQSLKEIFALLTGVALMIVIAKFE	rescue border cell migration to nearly wild type levels	did
Catsup^H315A: V5-tagged RNAi-resistant Catsup point mutant replacing a histidine required for Zn2+ transport (protein, UniProt Q9V3A4 1-449, looked up, variant H315A) Protein catecholamines up: MAKQVADYQCSKLQLYQKLALVVILGAVLFSLPALCAGQGNPSFKYSREANENFDPQKAPRAEHHHHHDHDHDHGHHHHGHDHDHDHDHGHDHGHHHHGHDHDHDHDHGHHHHGHDERHTKAKPDLDMSTIWLHSIGSTLLISAAPFVLLYIIPLDNSEAMKPRLKVLLAFASGGLLGDAFLHLIPHATHPHSHGEHGHDHGHDHHHHHDGEEHEHGHSHDMSIGLWVLGGIIAFLSVEKLVRILKGGHGGHGHSHGAPKPKPVPAKKKSSDKEDSGDGDKPAKPAKIKSKKPEAEPEGEVEISGYLNLAADFAANFTDGLAIGASYLAGNSIGIVTTITILLHEVPHEIGDFAILIKSGCSRRKAMLLQLVTALGALAGTALALLGAGGGDGSAPWVLPFTAGGFIYIATVSVLPELLEESTKLKQSLKEIFALLTGVALMIVIAKFE	neither Castup^H344A nor Catsup^H315A provided significant rescue	
Catsup^H183A: V5-tagged RNAi-resistant Catsup point mutant that does not disrupt Zn2+ transport (control) (protein, UniProt Q9V3A4 1-449, looked up, variant H183A, V5 tag) Protein catecholamines up: MAKQVADYQCSKLQLYQKLALVVILGAVLFSLPALCAGQGNPSFKYSREANENFDPQKAPRAEHHHHHDHDHDHGHHHHGHDHDHDHDHGHDHGHHHHGHDHDHDHDHGHHHHGHDERHTKAKPDLDMSTIWLHSIGSTLLISAAPFVLLYIIPLDNSEAMKPRLKVLLAFASGGLLGDAFLALIPHATHPHSHGEHGHDHGHDHHHHHDGEEHEHGHSHDMSIGLWVLGGIIAFLSVEKLVRILKGGHGGHGHSHGAPKPKPVPAKKKSSDKEDSGDGDKPAKPAKIKSKKPEAEPEGEVEISGYLNLAADFAHNFTDGLAIGASYLAGNSIGIVTTITILLHEVPHEIGDFAILIKSGCSRRKAMLLQLVTALGALAGTALALLGAGGGDGSAPWVLPFTAGGFIYIATVSVLPELLEESTKLKQSLKEIFALLTGVALMIVIAKFE	rescue border cell migration to nearly wild type levels	did
O-fucosyltransferase-1: Notch specific chaperone, overexpressed from a UAS transgene (protein, UniProt Q9V6X7 24-402, looked up) GDP-fucose protein …: QLGGDPNGYLTYCPCMGRFGNQADHFLGSLAFAKALNRTLILPPWVEYRRGELRSRQVPFNTYFEVEPLKEYHRVITMADFMWHLADDIWPESERVSFCYKERYSLQQEKNDPDKPNCHAKDGNPFGPFWDTFHIDFVRSEFYAPLHFDVHHSNEAAKWQTKYPAESYPVLAFTGAPASFPVQLENCKLQRYLQWSQRYREASKDFIREQLPRGAFLGIHLRNGIDWVRACEHVKDSQHLFASPQCLGYKNERGALYPELCMPSKEAIIRQLKRTIKNVRQTQPDNEIKSVFVASDSNHMIGELNTALSRMGISVHKLPEDDPYLDLAILGQSNHFIGNCISSYSAFEKRERDVHGFPSYFWGFPKEKDRKHTNVHEEL	neither NICD expression nor overexpression of the Notch specific chaperone O-fucosyltransferase-1^58 was sufficient to rescue Catsup RNAi	
